# In patent US20250171542A1:
# B1: Trodelvy (Sacituzumab govitecan-hziy, Immunomedics) (antibody, INN chains, looked up, V domains shown)
# VH: QVQLQQSGSELKKPGASVKVSCKASGYTFTNYGMNWVKQAPGQGLKWMGWINTYTGEPTYTDDFKGRFAFSLDTSVSTAYLQISSLKADDTAVYFCARGGFGSSYWYFDVWGQGSLVTVSS
# VL: DIQLTQSPSSLSASVGDRVSITCKASQDVSIAVAWYQQKPGKAPKLLIYSASYRYTGVPDRFSGSGSGTDFTLTISSLQPEDFAVYYCQQHYITPLTFGAGTKVEIKR
# modifications: govitecan (SN-38) payload
# Biological target: Trop2 on MDA-MB-231 cell surface (UniProt P09758)
# Experiment: cell-based or functional assay
# Sequence of Trop2 on MDA-MB-231 cell surface (P09758 27-323 limits assumed): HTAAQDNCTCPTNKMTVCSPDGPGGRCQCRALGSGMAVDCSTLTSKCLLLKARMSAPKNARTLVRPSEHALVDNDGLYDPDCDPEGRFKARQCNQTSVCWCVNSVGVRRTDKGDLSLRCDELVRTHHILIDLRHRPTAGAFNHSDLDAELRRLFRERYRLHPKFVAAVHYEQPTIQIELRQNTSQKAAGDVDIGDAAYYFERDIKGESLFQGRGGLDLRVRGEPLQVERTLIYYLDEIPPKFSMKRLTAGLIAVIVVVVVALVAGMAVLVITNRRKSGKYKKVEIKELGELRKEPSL
binder,measurement,value
B1,"Internalization (%), FACS, 0.25 µg/ml, 2 h",35.7%
same,"Internalization (%), FACS, 0.25 µg/ml, 4 h",45.1%
same,"Internalization (%), FACS, 0.5 µg/ml, 2 h",38%
same,"Internalization (%), FACS, 0.5 µg/ml, 4 h",45.6%
same,"Internalization (%), FACS, 1 µg/ml, 2 h",36.5%
same,"Internalization (%), FACS, 1 µg/ml, 4 h",44.5%
same,"Internalization (%), FACS, 2 µg/ml, 2 h",36.2%
same,"Internalization (%), FACS, 2 µg/ml, 4 h",46.1%
